This note sets out measurements from PMC3413138.

As a reminder, the Kd is the free concentration of one partner at which half of the binding sites on the other are occupied at equilibrium, for simple one-to-one binding. Read a low Kd as higher affinity.

Read-outs that look alike come from different tables or passages of the source.

What all share (assay): SPR
A general note: Surface plasmon resonance follows binding to a sensor surface in real time, without labels.

In data set [1] the target is T1, beta-catenin FL (UniProt P35222 1-781).
In another data set the target is HuR (UniProt Q15717 1-326).
The target of data set [2] is T1, beta-catenin FL. The source holds these as a separate data set.
Data set [3] addresses T1, beta-catenin FL. This is another data set of the same source.

HuR, sequence (Q15717 whole entry): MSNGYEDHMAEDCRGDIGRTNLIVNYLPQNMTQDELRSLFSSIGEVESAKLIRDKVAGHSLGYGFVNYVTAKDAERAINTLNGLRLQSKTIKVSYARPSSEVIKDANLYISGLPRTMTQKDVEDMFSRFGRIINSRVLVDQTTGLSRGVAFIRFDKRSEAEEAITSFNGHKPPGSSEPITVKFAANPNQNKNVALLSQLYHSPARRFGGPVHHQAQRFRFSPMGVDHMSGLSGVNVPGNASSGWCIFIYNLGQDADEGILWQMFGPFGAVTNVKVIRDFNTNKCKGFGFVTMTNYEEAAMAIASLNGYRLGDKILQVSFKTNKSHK
T1 sequence (P35222 whole entry): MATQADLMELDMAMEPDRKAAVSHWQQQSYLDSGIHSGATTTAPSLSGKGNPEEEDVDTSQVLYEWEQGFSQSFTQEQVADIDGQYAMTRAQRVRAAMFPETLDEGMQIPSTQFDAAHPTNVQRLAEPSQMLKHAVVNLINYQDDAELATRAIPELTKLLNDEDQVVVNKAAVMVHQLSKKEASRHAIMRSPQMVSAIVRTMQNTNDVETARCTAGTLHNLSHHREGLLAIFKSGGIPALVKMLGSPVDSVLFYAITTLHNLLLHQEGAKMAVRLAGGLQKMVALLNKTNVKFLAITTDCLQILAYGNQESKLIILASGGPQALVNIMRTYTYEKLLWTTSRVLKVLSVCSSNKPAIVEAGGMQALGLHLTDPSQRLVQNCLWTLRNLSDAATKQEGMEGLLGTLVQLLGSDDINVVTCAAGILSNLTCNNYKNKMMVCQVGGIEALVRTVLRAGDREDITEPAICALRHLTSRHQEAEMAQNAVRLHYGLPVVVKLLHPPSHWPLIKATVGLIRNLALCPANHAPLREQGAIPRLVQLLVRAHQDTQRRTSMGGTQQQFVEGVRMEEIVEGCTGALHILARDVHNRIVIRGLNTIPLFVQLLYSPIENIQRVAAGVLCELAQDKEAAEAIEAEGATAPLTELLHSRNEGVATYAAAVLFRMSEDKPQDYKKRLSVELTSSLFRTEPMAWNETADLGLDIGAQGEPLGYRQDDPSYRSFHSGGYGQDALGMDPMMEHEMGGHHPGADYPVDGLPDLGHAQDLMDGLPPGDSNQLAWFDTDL

B1: COX-2 3'-UTR U-4 (ssRNA)
RNA: UGUAACAGAAGUCAGUACUCCUGUUGCGGAGAAAGGAGUCAUACUUGUGAAGACUUUUAUGUCACUACUCUAAAGAUUUUGCUGUUGCUGUUAAGUUUGG
For the molecule B1, the dissociation constant (Kd) is 131 nM with beta-catenin FL [1] and 3510 nM in the data set with HuR.

B2: COX-2 3'-UTR U-3 (ssRNA)
RNA: GCGGAGAAAGGAGUCAUACUUGUGAAGACUUUUAUGUCACUACUCUAAAGAUUUUGCUGUUGCUGUUAAGUUUGGAAAACAGUUUUUAUUCUGUUUUAUAAACCAGAGAGAAAUGAGUUUUGACGUCUUUUUACUUGAAUUUCAACUUAUAUUAUAAGGACGAAAGUAAAGAUGUUUGAAUACUUAAACACUAUCACAAGAUGCCAA
In the data set with beta-catenin FL [2], B2 yielded a dissociation constant Kd of 2600 nM.

B3: negative control NC RNA (ssRNA)
RNA: CAUAGCUCAUUAUACCCUCCUGGGCUCAAGCAAUCCCCCUAACUCUGCCUCCCCAGUAGCUAGGACCACAGGCAUACACC
Consider B3, for which the binding result with beta-catenin FL [3] is “no binding”.

B4: COX-2 3'-UTR U-2 (ssRNA)
RNA: AAGUCUAAUGAUCAUAUUUAUUUAUUUAUAUGAACCAUGUCUAUUAAUUUAAUUAUUUAAUAAUAUUUAUAUUAAACUCCUUAUGUUACUUAACAUCUUCUGUAACAGAAGUCAGUACUCCUGUUGCGGAGAAAGGAGUCAUACUUGUGAAGACUUUUAUGUCACUACUCUAAAGAUUUUGCUGUUGC
Turning to B4, the results for the Kd with HuR and with beta-catenin FL [2] were 81.3 nM and 158 nM, respectively.

B5: COX-2 3'-UTR U-1 (ssRNA)
RNA: AAGUCUAAUGAUCAUAUUUAUUUAUUUAUAUGAACCAUGUCUAUUAAUUUAAUUAUUUAAUAAUAUUUAUAUUAAACUCCUUAUGUUACUUAACAUCUUCUGUAACAGAAGUCAGUACUCCUGUUGCGGAGAAAGGAGUCAUACUUGUGA
Take B5: binding with HuR was put at a Kd of 33.4 nM.
